Test results as given in patent publication US20210380703A1.

Target: human Fc (human)
Assay: ELISA, negative control

optical density [OD]	Binder
0.227	376_G01 (antibody, V domains shown) VH: EVQLLESGGGLVQPGGSLRLSCAASGFTFDDYSMNWVRQAPGKGLEWVSGINYNSGYKSYADSVKGRFTISRDNSKNTLYLQMNSLRAEDTAVYYCARSATWHDTHLDYWGQGTLVTVSS VL: DIQMTQSPSSLSASVGDRVTITCRASQSILSYVNWYQQKPGKAPKLVIYAVTSRASGVPSRFSGSGSGTDFTLTISSLQPEDFATYYCQQSYELPLTFGGGTKVEIK
0.175	374_G02 (antibody, V domains shown) VH: EVQLLESGGGLVQPGGSLRLSCAASGFTFDSYSMNWVRQAPGKGLEWVSGINYNSGYTSYADSVKGRFTISRDNSKNTLYLQMNSLRAEDTAVYYCARSATWHDTHLDYWGQGTLVTVSS VL: DIQMTQSPSSLSASVGDRVTITCRASQSILTYLNWYQQKPGKAPKLLIYAASSLQSGVPSRFSGSGSGTDFTLTISSLQPEDFATYYCQQSYDTPLTFGGGTKVEIK
0.17	375_B10 (antibody, V domains shown) VH: EVQLLESGGGLVQPGGSLRLSCAASGFTFDSYSMNWVRQAPGKGLEWVSGINYNSGYTSYADSVKGRFTISRDNSKNTLYLQMNSLRAEDTAVYYCARSATWHDTHLDYWGQGTLVTVSS VL: DIQMTQSPSSLSASVGDRVTITCRASQSILSYLNWYQQKPGKAPKLLIYAATSRHSGVPSRFSGSGSGTDFTLTISSLQPEDFATYYCQQSYDLPLTFGGGTKVEIK
0.285	376_G11 (antibody, V domains shown) VH: EVQLLESGGGLVQPGGSLRLSCAASGFTFSSYSMNWVRQAPGKGLEWVSGINYNSGYKSYADSVKGRFTISRDNSKNTLYLQMNSLRAEDTAVYYCARSATWHDTHLDYWGQGTLVTVSS VL: DIQMTQSPSSLSASVGDRVTITCRASQSIVTYVNWYQQKPGKAPKLVIYAATSLASGVPSRFSGSGSGTDFTLTISSLQPEDFATYYCQQSYNLPLTFGGGTKVEIK
0.274	376_H08 (antibody, V domains shown) VH: EVQLLESGGGLVQPGGSLRLSCAASGFTFDSYGMNWVRQAPGKGLEWVSNINYNGGYKGYADSVKGRFTISRDNSKNTLYLQMNSLRAEDTAVYYCARSATWHDTHLDYWGQGTLVTVSS VL: DIQMTQSPSSLSASVGDRVTITCRASQSILTYLNWYQQKPGKAPKLLIYAATSRHSGVPSRFSGSGSGTDFTLTISSLQPEDFATYYCQQSDSLPLTFGGGTKVEIK
0.169	374_E04 (antibody, V domains shown) VH: EVQLLESGGGLVQPGGSLRLSCAASGFTFSSYSMNWVRQAPGKGLEWVSGINYNSGYKSYADSVKGRFTISRDNSKNTLYLQMNSLRAEDTAVYYCARSATWHDTHLDYWGQGTLVTVSS VL: DIQMTQSPSSLSASVGDRVTITCRASQSILSYLNWYQQKPGKAPKLLIYAVTSRASGVPSRFSGSGSGTDFTLTISSLQPEDFATYYCQQSYNNPLTFGGGTKVEIK
0.246	376_E09 (antibody, V domains shown) VH: EVQLLESGGGLVQPGGSLRLSCAASGFTFDSYSMNWVRQAPGKGLEWVSGINYNSGYKSYADSVKGRFTISRDNSKNTLYLQMNSLRAEDTAVYYCARSATWHDTHLDYWGQGTLVTVSS VL: DIQMTQSPSSLSASVGDRVTITCRASQSILTYLNWYQQKPGKAPKLLIYAATSRHSGVPSRFSGSGSGTDFTLTISSLQPEDFATYYCQQSYDTPLTFGGGTKVEIK

Further lines, the binder ahead of its results:

Binder	optical density [OD]
374_B11 (antibody, V domains shown) VH: EVQLLESGGGLVQPGGSLRLSCAASGFTFSSYSMNWVRQAPGKGLEWVSGINYNSGYKSYADSVKGRFTISRDNSKNTLYLQMNSLRAEDTAVYYCARSATWHDTHLDYWGQGTLVTVSS VL: DIQMTQSPSSLSASVGDRVTITCRASQSILTYVNWYQQKPGKAPKLVIYAATSRASGVPSRFSGSGSGTDFTLTISSLQPEDFATYYCQQSYDLPLTFGGGTKVEIK	0.17
367_F08 (antibody, V domains shown) VH: EVQLLESGGGLVQPGGSLRLSCAASGFTFSSYGMHWVRQAPGKGLEWVSSINYNSGYTSYADSVKGRFTISRDNSKNTLYLQMNSLRAEDTAVYYCARAATWHDTHLDYWGQGTLVTVSS VL: DIQMTQSPSSLSASVGDRVTITCRASQSILSYVNWYQQKPGKAPKLVIYAATSRASGVPSRFSGSGSGTDFTLTISSLQPEDFATYYCQQSNELPLTFGGGTKVEIK	0.299
373_D09 (antibody, V domains shown) VH: EVQLLESGGGLVQPGGSLRLSCAASGFTFDSYSMNWVRQAPGKGLEWVSGINYNSGYTSYADSVKGRFTISRDNSKNTLYLQMNSLRAEDTAVYYCARSATWHDTHLDYWGQGTLVTVSS VL: DIQMTQSPSSLSASVGDRVTITCRASQSILTYLNWYQQKPGKAPKLVIYAATSRHSGVPSRFSGSGSGTDFTLTISSLQPEDFATYYCQQSYENPLTFGGGTKVEIK	0.16
371_B05 (antibody, V domains shown) VH: EVQLLESGGGLVQPGGSLRLSCAASGFTFSSYSMNWVRQAPGKGLEWVSGINYNSGYTSYADSVKGRFTISRDNSKNTLYLQMNSLRAEDTAVYYCARSATWHDTHLDYWGQGTLVTVSS VL: DIQMTQSPSSLSASVGDRVTITCRASQSILTYLNWYQQKPGKAPKLVIYAATSLASGVPSRFSGSGSGTDFTLTISSLQPEDFATYYCQQSDETPLTFGGGTKVEIK	0.246
373_F02 (antibody, V domains shown) VH: EVQLLESGGGLVQPGGSLRLSCAASGFTFDSYSMNWVRQAPGKGLEWVSGINYNSGYKSYADSVKGRFTISRDNSKNTLYLQMNSLRAEDTAVYYCARSATWHDTHLDYWGQGTLVTVSS VL: DIQMTQSPSSLSASVGDRVTITCRASQSILTYLNWYQQKPGKAPKLLIYAATSRASGVPSRFSGSGSGTDFTLTISSLQPEDFATYYCQQSYDTPLTFGGGTKVEIK	0.175
372_H03 (antibody, V domains shown) VH: EVQLLESGGGLVQPGGSLRLSCAASGFTFDSYGMNWVRQAPGKGLEWVSNINYNGGYKSYADSVKGRFTISRDNSKNTLYLQMNSLRAEDTAVYYCARSATWHDTHLDYWGQGTLVTVSS VL: DIQMTQSPSSLSASVGDRVTITCRASQSIITYVNWYQQKPGKAPKLLIYAATSLASGVPSRFSGSGSGTDFTLTISSLQPEDFATYYCQQSYNLPLTFGGGTKVEIK	0.437
367_G08 (antibody, V domains shown) VH: EVQLLESGGGLVQPGGSLRLSCAASGFTFDSYGMNWVRQAPGKGLEWVSNINYNGGYKGYADSVKGRFTISRDNSKNTLYLQMNSLRAEDTAVYYCARSATWHDTHLDYWGQGTLVTVSS VL: DIQMTQSPSSLSASVGDRVTITCRASQSILSYLNWYQQKPGKAPKLLIYAATSRASGVPSRFSGSGSGTDFTLTISSLQPEDFATYYCQQSYENPLTFGGGTKVEIK	0.33
369_E04 (antibody, V domains shown) VH: EVQLLESGGGLVQPGGSLRLSCAASGFTFSDYSMNWVRQAPGKGLEWVSGINYNSGYKSYADSVKGRFTISRDNSKNTLYLQMNSLRAEDTAVYYCARSATWHDTHLDYWGQGTLVTVSS VL: DIQMTQSPSSLSASVGDRVTITCRASQSILSYVNWYQQKPGKAPKLVIYAATSRASGVPSRFSGSGSGTDFTLTISSLQPEDFATYYCQQSYSLPLTFGGGTKVEIK	0.387
373_E08 (antibody, V domains shown) VH: EVQLLESGGGLVQPGGSLRLSCAASGFTFDSYGMNWVRQAPGKGLEWVSGINYNSGYTSYADSVKGRFTISRDNSKNTLYLQMNSLRAEDTAVYYCARSATWHDTHLDYWGQGTLVTVSS VL: DIQMTQSPSSLSASVGDRVTITCRASQSIVSYVNWYQQKPGKAPKLLIYAVTSRASGVPSRFSGSGSGTDFTLTISSLQPEDFATYYCQQSYESPLTFGGGTKVEIK	0.165
371_F12 (antibody, V domains shown) VH: EVQLLESGGGLVQPGGSLRLSCAASGFTFDSYSMNWVRQAPGKGLEWVSNINYNGGYKSYADSVKGRFTISRDNSKNTLYLQMNSLRAEDTAVYYCARSATWHDTHLDYWGQGTLVTVSS VL: DIQMTQSPSSLSASVGDRVTITCRASQSIISYLNWYQQKPGKAPKLLIYAATSRASGVPSRFSGSGSGTDFTLTISSLQPEDFATYYCQQSNNLPLTFGGGTKVEIK	0.413
365_H04 (antibody, V domains shown) VH: EVQLLESGGGLVQPGGSLRLSCAASGFTFSDYGMNWVRQAPGKGLEWVSGINYNSGYKSYADSVKGRFTISRDNSKNTLYLQMNSLRAEDTAVYYCARSATWHDTHLDYWGQGTLVTVSS VL: DIQMTQSPSSLSASVGDRVTITCRASQSILTYVNWYQQKPGKAPKLVIYAATSRASGVPSRFSGSGSGTDFTLTISSLQPEDFATYYCQQSYESPLTFGGGTKVEIK	0.371
367_E10 (antibody, V domains shown) VH: EVQLLESGGGLVQPGGSLRLSCAASGFTFSSYGMHWVRQAPGKGLEWVSSINYNGGYTGYADSVKGRFTISRDNSKNTLYLQMNSLRAEDTAVYYCARAATWHDTHLDYWGQGTLVTVSS VL: DIQMTQSPSSLSASVGDRVTITCRASQSILSYVNWYQQKPGKAPKLLIYAATSRASGVPSRFSGSGSGTDFTLTISSLQPEDFATYYCQQSYELPLTFGGGTKVEIK	0.271
365_E08 (antibody, V domains shown) VH: EVQLLESGGGLVQPGGSLRLSCAASGFTFDSYSMNWVRQAPGKGLEWVSGINYNSGYTSYADSVKGRFTISRDNSKNTLYLQMNSLRAEDTAVYYCARSATWHDTHLDYWGQGTLVTVSS VL: DIQMTQSPSSLSASVGDRVTITCRASQSIISYVNWYQQKPGKAPKLVIYAATSLASGVPSRFSGSGSGTDFTLTISSLQPEDFATYYCQQSYDLPLTFGGGTKVEIK	0.298
366_E03 (antibody, V domains shown) VH: EVQLLESGGGLVQPGGSLRLSCAASGFTFDSYGMNWVRQAPGKGLEWVSNINYNGGYKSYADSVKGRFTISRDNSKNTLYLQMNSLRAEDTAVYYCARSATWHDTHLDYWGQGTLVTVSS VL: DIQMTQSPSSLSASVGDRVTITCRASQSILTYLNWYQQKPGKAPKLVIYAATSRHSGVPSRFSGSGSGTDFTLTISSLQPEDFATYYCQQSYSNPLTFGGGTKVEIK	0.384
366_C03 (antibody, V domains shown) VH: EVQLLESGGGLVQPGGSLRLSCAASGFTFDSYGMNWVRQAPGKGLEWVSNINYNGGYTGYADSVKGRFTISRDNSKNTLYLQMNSLRAEDTAVYYCARSATWHDTHLDYWGQGTLVTVSS VL: DIQMTQSPSSLSASVGDRVTITCRASQSILSYLNWYQQKPGKAPKLVIYAATSRASGVPSRFSGSGSGTDFTLTISSLQPEDFATYYCQQSYSNPLTFGGGTKVEIK	0.274
